In publication doi:10.1101/2020.06.30.176701 (bioRxiv, 2020):
Like-named read-outs stand apart in the source and are kept apart here.

T1: archaeal ribosomal P-stalk complex aP0•(aP1•aP1)3 (Pyrococcus horikoshii, UniProt O74109 1-342; O57705 1-108)
T1 sequence (looked up) 1: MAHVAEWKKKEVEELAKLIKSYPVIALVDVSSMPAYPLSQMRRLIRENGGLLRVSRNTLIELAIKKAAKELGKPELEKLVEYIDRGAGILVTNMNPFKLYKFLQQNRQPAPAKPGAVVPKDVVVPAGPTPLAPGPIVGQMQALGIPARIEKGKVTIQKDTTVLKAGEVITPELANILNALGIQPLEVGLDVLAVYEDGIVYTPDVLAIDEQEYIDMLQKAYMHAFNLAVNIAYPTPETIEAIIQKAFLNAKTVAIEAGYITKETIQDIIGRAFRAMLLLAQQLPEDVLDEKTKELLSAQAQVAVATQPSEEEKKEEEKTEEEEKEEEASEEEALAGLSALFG
T1 sequence (looked up) 2: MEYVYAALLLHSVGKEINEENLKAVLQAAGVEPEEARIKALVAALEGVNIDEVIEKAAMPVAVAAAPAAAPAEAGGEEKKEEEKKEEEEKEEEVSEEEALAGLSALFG

B1: archaeal elongation factor 2 (aEF2) of Pyrococcus furiosus (natural protein, UniProt P61877 1-732, looked up)
chain: MGRREEMIAKIKELMLQPERIRNIGIAAHIDHGKTTLSDNLLAGAGMISEELAGKQLVLDFDEQEQARGITINAANVSMVHNYEGKDYLINLIDTPGHVDFGGDVTRAMRAIDGVIIVVDAVEGVMPQTETVVRQALREYVKPVLFINKVDRLIRELKLTPQQMMERFSKIIMDVNRLIQRYAPEEYKKKWMVRVEDGSVAFGSAYYNWALSVPFMQRTGVKFNEIIDLTLKGDNKTLRQRAPLHVVVLDMVVRHLPSPIEAQKYRIPHLWQGDINSKIGQAMLNCDPKGKMVMVITKIIIDKHAGEVATGRVWSGTVRSGQEVYLINSKRKGRIQQVGIYMGPERINMEAVPAGNIVAVTGLRDAMAGETVAEEQIEPFEALHYVSEPVVTVAIEAKNVKDLPRLIEALRQLAKEDPTLHVKIDEETGQHLLSGMGELHLEVKLYKLQKDWGIEVDVSEPIVVYRESITKPSPIVEGKSPNKHNRFYVVVEPMPDEIYQAIKEGIIPEGRVKDPKAVAKKLAELGMDYDIARGVVDIYNGNMFLDNTKGIQYLNEVMDLLIDGFHQAMDEGPLAKEPVMKVIVRLVDAQVHEDNVHRGPAQIYPAIRTAIHCAMMKAGPVLYEPYQKVIINIPYEYMGAVSREISQRRGQLIDMRQEGEVMTIIAEAPVAEMFGFAGAIRSATSGRALWSTEHAGFKRVPNELAQQIIRQIRQRKGLDPNPPTEKDVCPLF
B2: archaeal elongation factor 1A (aEF1A) of Pyrococcus furiosus (natural protein, UniProt Q8U152 1-428, looked up)
chain: MPKDKPHVNIVFIGHVDHGKSTTIGRLLYDTGNIPEQIIKKFEEMGEKGKSFKFAWVMDRLKEERERGITIDVAHTKFETPHRYITIIDAPGHRDFVKNMITGASQADAAVLVVAATDGVMPQTKEHAFLARTLGIKHIIVAINKMDMVNYNQKRFEEVKAQVEKLLKMLGYKDFPVIPISAWEGENVVKKSDKMPWYNGPTLIEALDQIPEPEKPVDKPLRIPIQDVYSIKGVGTVPVGRVETGKLRVGEVVIFEPASTIFHKPIQGEVKSIEMHHEPLEEALPGDNIGFNVRGVSKNDIKRGDVAGHTTNPPTVVRTKDTFKAQIIVLNHPTAITVGYSPVLHAHTAQVPVRFEQLLAKLDPKTGNIVEENPQFIKTGDAAIVILRPMKPVVLEPVKEIPQLGRFAIRDMGMTIAAGMVISIQRGE

Tests used:
Assay in all cases: high-speed atomic force microscopy
[1] = target: T1, archaeal ribosomal P-stalk complex …
[2] = target: T1, archaeal ribosomal P-stalk complex …; remark: listed apart in the source
[3] = target: T1, archaeal ribosomal P-stalk complex …; remark: listed apart in the source
[4] = target: T1, archaeal ribosomal P-stalk complex …; remark: listed apart in the source
[5] = target: T1, archaeal ribosomal P-stalk complex …; remark: listed apart in the source

Binder | fold distribution near the P-stalk relative to the opposite control area [1] [fold] | stoichiometry N [2] | fold distribution near the P-stalk relative to the opposite control area [3] [fold] | fold distribution near the P-stalk relative to the opposite control area [4] [fold] | fold distribution near the P-stalk relative to the opposite control area [5] [fold]
B1 | ~4.3 | ≤ 7 aEF2 molecules per P-stalk | 6.6 | – | –
B2 | – | – | – | 2.6 | 4.2
